According to PMC9482650, “Quantitative fragmentomics allow affinity mapping of interactomes” (Nature Communications, 2022):

Experiments:
Assay in all cases: holdup assay
Set-up in all cases: key: below the threshold = too weak to quantify, mostly under pKd 3.1 to 4
Settings in all cases: plain residues with an end cap or a label only (N-terminal biotin on a linker: ado-ado)
DLG4_1, P78352 = target: DLG4_1, P78352
NHERF3_1, Q5T2W1 = target: T1, NHERF3_1, Q5T2W1
T1 sequence (Q5T2W1 4-100, limits assumed, looked up): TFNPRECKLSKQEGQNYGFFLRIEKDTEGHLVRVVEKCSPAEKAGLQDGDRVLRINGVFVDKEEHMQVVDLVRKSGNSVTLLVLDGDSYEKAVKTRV

PARD3_3, Q8TEW0 = target: PARD3_3, Q8TEW0
PARD3_3, Q8TEW0, sequence (Q8TEW0 582-685): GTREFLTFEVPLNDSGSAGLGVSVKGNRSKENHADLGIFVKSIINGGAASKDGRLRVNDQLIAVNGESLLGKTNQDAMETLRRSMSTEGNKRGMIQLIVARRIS

PTPN13_1, Q12923 = target: T2, PTPN13_1, Q12923
T2 sequence (Q12923 1088-1188, limits assumed, looked up): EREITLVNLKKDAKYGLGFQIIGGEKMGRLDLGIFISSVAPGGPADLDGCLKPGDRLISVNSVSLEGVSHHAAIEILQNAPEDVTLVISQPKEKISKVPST

TIAM2, Q8IVF5 = target: T3, TIAM2, Q8IVF5
T3 sequence (Q8IVF5 885-986, limits assumed, looked up): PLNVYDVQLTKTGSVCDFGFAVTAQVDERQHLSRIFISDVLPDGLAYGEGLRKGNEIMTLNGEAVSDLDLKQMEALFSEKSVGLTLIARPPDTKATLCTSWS

APBA2_1, Q99767 = target: T4, APBA2_1, Q99767
T4 sequence (Q99767 563-664, limits assumed, looked up): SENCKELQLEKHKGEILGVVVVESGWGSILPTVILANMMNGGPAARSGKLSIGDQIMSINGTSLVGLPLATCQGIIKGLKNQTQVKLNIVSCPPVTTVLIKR

FRMPD3, Q5JV73 = target: FRMPD3, Q5JV73
FRMPD3, Q5JV73, sequence (Q5JV73 12-100): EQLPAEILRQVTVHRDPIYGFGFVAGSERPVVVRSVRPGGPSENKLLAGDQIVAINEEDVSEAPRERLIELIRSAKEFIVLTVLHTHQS

PDZRN3_1, Q9UPQ7 = target: T5, PDZRN3_1, Q9UPQ7
T5 sequence (Q9UPQ7 244-349, limits assumed, looked up): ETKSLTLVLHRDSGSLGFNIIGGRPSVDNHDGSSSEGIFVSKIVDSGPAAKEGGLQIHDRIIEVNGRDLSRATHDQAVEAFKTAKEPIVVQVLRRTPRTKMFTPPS

LNX1_1, Q8TBB1 = target: LNX1_1, Q8TBB1
LNX1_1, Q8TBB1, sequence (Q8TBB1 261-371): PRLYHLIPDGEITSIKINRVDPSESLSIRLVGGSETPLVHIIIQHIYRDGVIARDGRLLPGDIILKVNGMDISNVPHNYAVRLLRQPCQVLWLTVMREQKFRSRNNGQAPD

GORASP1, Q9BQQ3 = target: GORASP1, Q9BQQ3
GORASP1, Q9BQQ3, sequence (Q9BQQ3 1-208): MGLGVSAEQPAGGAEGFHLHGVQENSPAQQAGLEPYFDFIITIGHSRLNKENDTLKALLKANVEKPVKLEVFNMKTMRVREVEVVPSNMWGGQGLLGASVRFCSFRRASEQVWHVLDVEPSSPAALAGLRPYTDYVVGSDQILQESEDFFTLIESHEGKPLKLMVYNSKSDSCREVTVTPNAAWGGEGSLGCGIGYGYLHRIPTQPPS

APBA2_2, Q99767 = target: T6, APBA2_2, Q99767
T6 sequence (Q99767 654-744, limits assumed, looked up): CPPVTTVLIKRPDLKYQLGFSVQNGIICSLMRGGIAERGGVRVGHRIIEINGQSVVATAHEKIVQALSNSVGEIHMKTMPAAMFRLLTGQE

MPDZ_10, O75970 = target: T7, MPDZ_10, O75970
T7 sequence (O75970 1624-1722, limits assumed, looked up): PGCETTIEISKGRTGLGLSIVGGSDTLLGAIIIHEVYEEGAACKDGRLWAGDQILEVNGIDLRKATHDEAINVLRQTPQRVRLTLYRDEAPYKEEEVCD

LNX1_2, Q8TBB1 = target: LNX1_2, Q8TBB1
LNX1_2, Q8TBB1, sequence (Q8TBB1 371-470): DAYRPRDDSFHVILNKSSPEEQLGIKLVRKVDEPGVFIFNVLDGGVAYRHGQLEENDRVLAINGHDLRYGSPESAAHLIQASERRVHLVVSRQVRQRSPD

NHERF2_2, Q15599 = target: NHERF2_2, Q15599
NHERF2_2, Q15599, sequence (Q15599 142-238): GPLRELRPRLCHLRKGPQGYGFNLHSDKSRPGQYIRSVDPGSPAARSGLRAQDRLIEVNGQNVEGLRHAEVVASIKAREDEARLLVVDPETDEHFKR

SNTG2, Q9NY99 = target: T8, SNTG2, Q9NY99
T8 sequence (Q9NY99 68-166, limits assumed, looked up): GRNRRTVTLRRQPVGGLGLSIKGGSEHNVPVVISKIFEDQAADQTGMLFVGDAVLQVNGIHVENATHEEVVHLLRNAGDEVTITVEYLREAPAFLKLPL

GRIP2_6, Q9C0E4 = target: GRIP2_6, Q9C0E4
GRIP2_6, Q9C0E4, sequence (Q9C0E4 648-740): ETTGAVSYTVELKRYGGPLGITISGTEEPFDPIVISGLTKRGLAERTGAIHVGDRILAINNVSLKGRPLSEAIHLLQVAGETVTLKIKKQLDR

PARD3B_1, Q8TEW8 = target: T9, PARD3B_1, Q8TEW8
T9 sequence (Q8TEW8 196-299, limits assumed, looked up): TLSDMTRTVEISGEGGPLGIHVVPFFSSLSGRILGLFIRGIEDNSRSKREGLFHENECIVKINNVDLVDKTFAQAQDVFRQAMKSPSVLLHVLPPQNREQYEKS

GRIP2_4, Q9C0E4 = target: GRIP2_4, Q9C0E4
GRIP2_4, Q9C0E4, sequence (Q9C0E4 446-548): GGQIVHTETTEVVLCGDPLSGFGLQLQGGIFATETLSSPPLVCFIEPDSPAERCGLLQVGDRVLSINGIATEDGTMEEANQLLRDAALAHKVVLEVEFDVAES

FRMPD2_3, Q68DX3 = target: FRMPD2_3, Q68DX3
FRMPD2_3, Q68DX3, sequence (Q68DX3 1073-1166): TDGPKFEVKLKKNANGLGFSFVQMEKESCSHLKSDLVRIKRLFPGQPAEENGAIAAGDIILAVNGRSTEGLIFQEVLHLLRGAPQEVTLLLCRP

GRIP1_2, Q9Y3R0 = target: T10, GRIP1_2, Q9Y3R0
T10 sequence (Q9Y3R0 145-248, limits assumed, looked up): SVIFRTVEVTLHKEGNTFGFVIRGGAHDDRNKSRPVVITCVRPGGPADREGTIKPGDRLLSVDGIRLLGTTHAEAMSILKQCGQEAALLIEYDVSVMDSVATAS

DFNB31_1, Q9P202 = target: T11, DFNB31_1, Q9P202
T11 sequence (Q9P202 135-233, limits assumed, looked up): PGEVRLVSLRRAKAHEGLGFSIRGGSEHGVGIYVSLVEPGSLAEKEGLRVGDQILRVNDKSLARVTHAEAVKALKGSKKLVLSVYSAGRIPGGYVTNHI

GRIP2_3, Q9C0E4 = target: GRIP2_3, Q9C0E4
GRIP2_3, Q9C0E4, sequence (Q9C0E4 238-339): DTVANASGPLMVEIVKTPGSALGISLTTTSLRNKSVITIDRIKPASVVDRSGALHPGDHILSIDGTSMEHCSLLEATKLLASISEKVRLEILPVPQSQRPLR

HTRA2, O43464 = target: HTRA2, O43464
HTRA2, O43464, sequence (O43464 355-458): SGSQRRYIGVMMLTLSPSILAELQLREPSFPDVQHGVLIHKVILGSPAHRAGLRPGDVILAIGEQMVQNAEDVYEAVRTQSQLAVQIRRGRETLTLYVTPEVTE

LAP2, Q96RT1 = target: LAP2, Q96RT1
LAP2, Q96RT1, sequence (Q96RT1 other isoform, or with tags, fused parts or gaps): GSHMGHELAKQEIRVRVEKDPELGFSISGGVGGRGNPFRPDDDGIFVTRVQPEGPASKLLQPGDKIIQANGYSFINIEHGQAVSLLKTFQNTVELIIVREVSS

Inadl_2, Q8NI35 = target: Inadl_2, Q8NI35
Inadl_2, Q8NI35, sequence (Q8NI35 238-335): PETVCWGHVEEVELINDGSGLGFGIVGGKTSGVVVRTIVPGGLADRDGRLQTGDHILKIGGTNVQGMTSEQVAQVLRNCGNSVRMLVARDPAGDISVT

GRIP2_5, Q9C0E4 = target: GRIP2_5, Q9C0E4
GRIP2_5, Q9C0E4, sequence (Q9C0E4 544-642): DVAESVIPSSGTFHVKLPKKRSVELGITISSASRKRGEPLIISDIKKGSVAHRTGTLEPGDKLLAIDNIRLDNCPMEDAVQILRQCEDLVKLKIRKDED

MAGI1_1, Q96QZ7 = target: MAGI1_1, Q96QZ7
MAGI1_1, Q96QZ7, sequence (Q96QZ7 1-106): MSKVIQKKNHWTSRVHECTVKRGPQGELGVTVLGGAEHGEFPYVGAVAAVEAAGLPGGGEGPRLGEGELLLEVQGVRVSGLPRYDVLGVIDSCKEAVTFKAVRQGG

DLG4_1, P78352, sequence (P78352 62-152): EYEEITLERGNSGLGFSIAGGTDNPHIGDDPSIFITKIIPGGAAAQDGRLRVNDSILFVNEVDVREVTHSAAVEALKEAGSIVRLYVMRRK

## FHSIKQSTAV [CRHR1, P34998]
DLG4_1, P78352
  pKd: 4.56
NHERF3_1, Q5T2W1
  pKd: 5.52
PARD3_3, Q8TEW0
  pKd: below the threshold
PTPN13_1, Q12923
  pKd: below the threshold
TIAM2, Q8IVF5
  pKd: below the threshold
APBA2_1, Q99767
  pKd: below the threshold
FRMPD3, Q5JV73
  pKd: below the threshold
PDZRN3_1, Q9UPQ7
  pKd: 4.17
LNX1_1, Q8TBB1
  pKd: below the threshold
GORASP1, Q9BQQ3
  pKd: below the threshold
APBA2_2, Q99767
  pKd: below the threshold
MPDZ_10, O75970
  pKd: below the threshold
LNX1_2, Q8TBB1
  pKd: below the threshold
NHERF2_2, Q15599
  pKd: below the threshold
SNTG2, Q9NY99
  pKd: 3.6
GRIP2_6, Q9C0E4
  pKd: below the threshold
PARD3B_1, Q8TEW8
  pKd: below the threshold
GRIP2_4, Q9C0E4
  pKd: below the threshold
FRMPD2_3, Q68DX3
  pKd: below the threshold
GRIP1_2, Q9Y3R0
  pKd: below the threshold
DFNB31_1, Q9P202
  pKd: 4.39
GRIP2_3, Q9C0E4
  pKd: below the threshold
HTRA2, O43464
  pKd: below the threshold
LAP2, Q96RT1
  pKd: 3.85
Inadl_2, Q8NI35
  pKd: below the threshold
GRIP2_5, Q9C0E4
  pKd: below the threshold
MAGI1_1, Q96QZ7
  pKd: below the threshold
